Target: BoNT serotype A (Clostridium botulinum, UniProt P0DPI0 2-1296)
Experiment: affinity; method not stated (yeast display affinity maturation)

Sequence of BoNT serotype A (P0DPI0 2-1296 limits assumed): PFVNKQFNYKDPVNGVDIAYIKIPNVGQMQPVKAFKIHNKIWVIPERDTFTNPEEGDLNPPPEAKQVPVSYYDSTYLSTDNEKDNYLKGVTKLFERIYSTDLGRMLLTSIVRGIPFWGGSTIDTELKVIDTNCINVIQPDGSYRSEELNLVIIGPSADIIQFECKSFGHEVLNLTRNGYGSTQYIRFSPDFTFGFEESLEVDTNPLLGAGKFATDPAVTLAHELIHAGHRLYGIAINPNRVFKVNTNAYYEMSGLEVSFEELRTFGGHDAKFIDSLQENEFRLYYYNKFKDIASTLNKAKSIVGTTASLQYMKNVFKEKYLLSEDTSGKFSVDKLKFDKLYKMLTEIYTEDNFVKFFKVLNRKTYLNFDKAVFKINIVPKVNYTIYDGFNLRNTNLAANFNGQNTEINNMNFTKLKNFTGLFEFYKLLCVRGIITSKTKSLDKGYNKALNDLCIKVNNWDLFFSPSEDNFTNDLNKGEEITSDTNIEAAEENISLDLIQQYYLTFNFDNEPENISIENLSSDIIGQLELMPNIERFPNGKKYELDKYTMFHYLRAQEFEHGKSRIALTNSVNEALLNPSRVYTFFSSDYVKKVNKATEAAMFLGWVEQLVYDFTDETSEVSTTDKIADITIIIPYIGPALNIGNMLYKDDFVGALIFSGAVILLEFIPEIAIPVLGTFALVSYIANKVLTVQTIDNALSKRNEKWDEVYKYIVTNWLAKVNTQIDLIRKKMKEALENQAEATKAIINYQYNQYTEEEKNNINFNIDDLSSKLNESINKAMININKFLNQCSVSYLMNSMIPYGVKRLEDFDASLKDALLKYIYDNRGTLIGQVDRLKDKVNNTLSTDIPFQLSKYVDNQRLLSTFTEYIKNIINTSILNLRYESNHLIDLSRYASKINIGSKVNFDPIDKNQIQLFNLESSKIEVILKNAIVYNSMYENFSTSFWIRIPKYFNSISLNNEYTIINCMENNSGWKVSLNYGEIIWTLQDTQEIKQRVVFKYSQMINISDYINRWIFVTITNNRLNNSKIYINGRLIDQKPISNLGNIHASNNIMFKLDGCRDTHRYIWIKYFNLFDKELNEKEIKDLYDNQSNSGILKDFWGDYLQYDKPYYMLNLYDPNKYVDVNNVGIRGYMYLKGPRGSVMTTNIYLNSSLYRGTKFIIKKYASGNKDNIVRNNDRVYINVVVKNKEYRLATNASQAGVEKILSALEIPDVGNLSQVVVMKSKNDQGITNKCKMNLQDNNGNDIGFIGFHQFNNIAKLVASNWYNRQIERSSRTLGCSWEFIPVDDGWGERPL

B1: H7 VHH (VHH)
VHH: QVQLVESGGGLVQVGGSLRLSCVVSGSDISGIAMGWYRQAPGKRREMVADIFSGGSTDYAGSVKGRFTISRDNAKKTSYLQMNNVKPEDTGVYYCRLYGSGDYWGQGTQVTVSS
- Kd: 0.042 nM

Reference: patent US20180237507A1 (CITY OF HOPE, published 2018)
